Substitutions are numbered along the chain they refer to. In names and notes the source's numbering stands. Entries after “also recorded” stand apart in the source; their conditions may differ.
What was measured:
[1] = MsP1 catalyzed degradation of cycloretinal; visual inspection and HPLC time course of degradation products; format: biochemical; settings: at 12 hours
Protocol: After 24 hours of incubation, broth cultures were transferred to sterile Eppendorf tubes and the organics extracted using an equal volume of dichloromethane (DCM) through vigorous vortexing. The organics were separated by centrifugation (13,000 rpm for 20 minutes), retrieved with a needle, and subsequently concentrated under nitrogen. The dried product was solubilized in 20 μL DCM and analyzed by high performance liquid chromatography (HPLC). HPLC analysis was performed on a Varian Prostar system equipped with a Phenomenex 5 μm 100 Å normal phase column (250×10 mm×5 micron), a UV detector set at 320 nm wavelength and mobile phase comprising 97% DCM and 3% methanol with flow rate of 2 mL/min. Products eluted were further analyzed by GC-MS.
Substrate emulsions (0.01%) were prepared, and Tween 40 was used to enhance solubilization of compounds, or otherwise dissolved in ethanol or DMSO. […]
To generate a standard curve for the degradation products, different concentrations of 2,4-dimethyl benzaldehyde (2, 4, 6, 8, 10 μg/20 μL) and β-ionone (1, 2, 3, 4 μg/20 μL) were analyzed by HPLC under the same conditions as as detailed in Example 3.
To identify the degradation products, cycloretinal was incubated for 1 hour with MsP1 in the presence of hydrogen peroxide. Following incubation, the reaction mixture was extracted and analyzed by GC-MS. […]

ARPE-19 cells = assay: ARPE-19 cytotoxicity of liposomal complexes, MTT assay; format: cell-based; settings: similar concentrations as cycloretinal, 96-h period
Protocol: The liposomal complexes were prepared as follows. Cycloretinal (10 mg), β-Ionone (20 mg), and 2,4-Dimethylbenzaldehyde (20 mg) were dissolved separately in ethanol (1 mL). Glyoxal (5.80 mg), methylglyoxal (7.21 mg), and β-cyclocitral (15.2 mg) were dissolved separately in chloroform (1 mL). A liposome solution of cholesterol (112 mg), Tween 80 (504 mg), and L-α-phosphatidylcholine (730 mg) were dissolved in 16 mL of chloroform. Liposome solution (2 mL) was added to each of the compounds. The solvents were removed under vacuum and charged with nitrogen. Each of the flasks were then mixed with 5 mL of water and stirred at 60° C. for 1 h. Each solution was placed on ice and sonicated with a probe sonicator (15 seconds on/15 seconds off) for 5 min. The solutions were centrifuged at 11,000×g for 30 min and filtered through a 0.2 μm filter. Each sample (10 μL) was added to 1 mL ethanol and measured by absorption via UV-Vis spectroscopy. The extinction coefficients were 9970 M^−1cm^−1, 26343 M^−1cm^−1, and 13476 M^−1cm^−1 for cycloretinal, 2,4-dimethylbenzaldehyde, and β-ionone, respectively. […]
Cell viability was assessed with the MTT cell proliferation assay. […] The absorbance was subsequently evaluated at 570 nm utilizing a microplate reader (quant absorbance plate reader, BioTek Instruments Inc.) […]

[2] = substrate: CC(C=CC1=C(C)CCCC1(C)C)=CC=CC1=CC=C(C=O)C(C)(C=CC=C(C)C=CC2=C(C)CCCC2(C)C)C1; assay: MsP1 H365F variant-catalyzed degradation of cycloretinal, steady-state enzyme kinetics; format: biochemical, Marasmius scorodonius; settings: other: H365F, PBS pH 7.4, H2O2, 430 nm, mean and 95% confidence limits
Protocol: (§1) The gene encoding Marasmius scorodonius extracellular peroxidase MsP1 (UniProtKB, B0BK71) and its R388L variant were chemically synthesized with codon optimization for E. coli, having an optimized sequence length 1539 bp cloned into pUC57 vector with a GC content of 54.67% (SEQ ID NO: 5).
(§2) MsP1 mutants were generated using the Agilent mutagenesis kit (Quick change II site directed mutagenesis kit, catalog number: 200523) and primers of Table 1. Primer annealing was carried out at 55° C. for 60 seconds followed by a polymerization step carried out at 68° C. for 5 minutes. A total of 16 cycles were carried out. After PCR amplification DpnI digestion was performed by adding 1.5 μL DpnI to PCR amplification mixture incubating for 4 hours at 37° C. The resulting mixture was cleaned using resin provided in the kit and transformed into XL1 Blue electrocompetent cells. The resulting clones were screened and sequenced to confirm mutagenesis.
(§3) Active site residues were selected based on multiple sequence alignment with homologous DyPs and protein modelling, His 365, Asp 228, and Arg 388 were identified as amino acids that are critical to MsP1 activity. […] This means that wtMsP1 has greater substrate affinity for cycloretinal, compared with D228A and R388L variants, and reaches half maximal velocity at lower substrate concentration. […] The greater affinity observed for the phenylalanine variant likely signifies that cycloretinal can dock with greater affinity in the active site since the iron porphyrin heme cofactor would no longer be covalently bound at residue 365. Therefore, the residues involved in MsP1 catalysis are D228, H365, and R388 (FIG. 10).

[3] = substrate: CC(C=CC1=C(C)CCCC1(C)C)=CC=CC1=CC=C(C=O)C(C)(C=CC=C(C)C=CC2=C(C)CCCC2(C)C)C1; assay: MsP1 R388L variant-catalyzed degradation of cycloretinal, steady-state enzyme kinetics; format: biochemical, Marasmius scorodonius; settings: other: R388L, PBS pH 7.4, H2O2, 430 nm, mean and 95% confidence limits
Protocol: as §1, §2, §3

[4] = substrate: CC(C=CC1=C(C)CCCC1(C)C)=CC=CC1=CC=C(C=O)C(C)(C=CC=C(C)C=CC2=C(C)CCCC2(C)C)C1; assay: MsP1 D228A variant-catalyzed degradation of cycloretinal, steady-state enzyme kinetics; format: biochemical, Marasmius scorodonius; settings: other: D228A, PBS pH 7.4, H2O2, 430 nm, mean and 95% confidence limits
Protocol: as §1, §2, §3

[5] = substrate: CC(C=CC1=C(C)CCCC1(C)C)=CC=CC1=CC=C(C=O)C(C)(C=CC=C(C)C=CC2=C(C)CCCC2(C)C)C1; assay: MsP1-catalyzed degradation of cycloretinal, steady-state enzyme kinetics (decrease in absorbance at 430 nm); format: biochemical, Marasmius scorodonius; settings: other: wtMsP1, PBS pH 7.4, H2O2, 430 nm, mean and 95% confidence limits
Excerpt: as §1

[6] = Activity of MsP1 at different pH (cycloretinal degradation); format: biochemical
Protocol: To determine the optimum pH for MsP1 activity, cycloretinal degradation reactions were carried out in PBS buffer as described herein but at different pH values by adjusting pH with either NaOH or HCl (i.e. a pH of 5.5, 6.4, 7.0, 7.5). Sample OD values were monitored using a UV-Vis spectrophotometer (Genesys™2, ThermoSpectronic) at 430 nm over a period of 300 seconds.

Molecule: CC(=O)/C=C/C1=C(C)CCCC1(C)C [β-ionone]
- level of degradation product in MsP1/cycloretinal reaction (HPLC, standard curve) [1]: undetectable levels
- impact on cell viability / toxicity to ARPE-19 cells (ARPE-19 cells): no impact on cell viability; also recorded: do not exhibit toxicity

Molecule: O=CC=O [glyoxal]
- impact on cell viability / toxicity to ARPE-19 cells (ARPE-19 cells): no impact on cell viability; also recorded: do not exhibit toxicity

B1: Marasmius scorodonius peroxidase MsP1 variant H365F (parent SEQ ID NO: 1) (Mycetinis scorodonius; H365F) (protein)
chain: ASSSAGLNLTDIQGDILIGMKKNKELFFFFSITDAATFKAKLGSDILELITSTNQLLAVATQPITAVNVAFSSTGLKALGITDDLKDPVFEAGMLSNAVSDLSDPGTGNWVPGFVGTSVHGVFLLASDTIDNVNTELANIQTILNGSITEIHRLQGEARPGDQQGHEHFGFMDGISNPAVDGFTPPAEIRPGQALIPPGIMLLGEANDTFQNDRPPWAKDGSFLVFRQMQQRAPEFNKFLQDHALNMPNMTSEQGADLLGARIVGRWKSDAPIDLTPLVDDPVLAADNQRNNNFDFSDATNQTRCPFSAFIRKANPRGDLGGINKFPNQHIIRAGIPYGPEVTDAEKASNSSSTDPSLERGLAFVAYQSNIQNGFVFLQKNWVDNTNFFRPGTGVDPLIGTNSRNSGTDAPNTPRVVSGLDPNNATSTIEIGIDFVVSRGGEYFFSPSLSAIRTVLSV
notes: site-directed mutant
- Km [2]: 906 ± 26 µM
- kcat [2]: 0.142 ± 0.0031 s⁻¹
- kcat/Km [2]: 156 ± 8 M⁻¹ s⁻¹

B2: Marasmius scorodonius peroxidase MsP1 variant R388L (parent SEQ ID NO: 1) (Mycetinis scorodonius; R388L) (protein)
chain: B1 chain with F310H, R333L
notes: R388L variant gene synthesized
- Km [3]: 1140 ± 11 µM
- kcat [3]: 0.0218 ± 0.00018 s⁻¹
- kcat/Km [3]: 19.2 ± 0.3 M⁻¹ s⁻¹

B3: Marasmius scorodonius peroxidase MsP1 variant D228A (parent SEQ ID NO: 1) (Mycetinis scorodonius; D228A) (protein)
chain: B1 chain with D173A, F310H
notes: site-directed mutant
- Km [4]: 4230 ± 82 µM
- kcat [4]: 0.388 ± 0.0073 s⁻¹
- kcat/Km [4]: 91.6 ± 3.5 M⁻¹ s⁻¹

B4: Marasmius scorodonius peroxidase MsP1, wild type (wtMsP1), SEQ ID NO: 1 (Mycetinis scorodonius) (protein)
chain: B1 chain with F310H
notes: wild type
- Km [5]: 845 ± 11 µM
- kcat [5]: 0.229 ± 0.0024 s⁻¹
- kcat/Km [5]: 271 ± 6.2 M⁻¹ s⁻¹

B5: MsP1: peroxidase enzyme from the organism Marasmius scorodonius, SEQ ID NO: 1; recombinant, N-terminal hexa-Histidine tag (protein, listed as Mycetinis scorodonius)
chain: MKLFSASVFAAIIASHYASATAHIRAPNVKPRRTNSLLTAPPQQPPLPSAQQAASASSSAGLNLTDIQGDILIGMKKNKELFFFFSITDAATFKAKLGSDILELITSTNQLLAVATQPITAVNVAFSSTGLKALGITDDLKDPVFEAGMLSNAVSDLSDPGTGNWVPGFVGTSVHGVFLLASDTIDNVNTELANIQTILNGSITEIHRLQGEARPGDQQGHEHFGFMDGISNPAVDGFTPPAEIRPGQALIPPGIMLLGEANDTFQNDRPPWAKDGSFLVFRQMQQRAPEFNKFLQDHALNMPNMTSEQGADLLGARIVGRWKSDAPIDLTPLVDDPVLAADNQRNNNFDFSDATNQTRCPFSAHIRKANPRGDLGGINKFPNQHIIRAGIPYGPEVTDAEKASNSSSTDPSLERGLAFVAYQSNIQNGFVFLQKNWVDNTNFFRPGTGVDPLIGTNSRNSGTDAPNTPRVVSGLDPNNATSTIEIGIDFVVSRGGEYFFSPSLSAIRTVLSV
modifications: MsP1 amino acid sequence
- optimal pH for MsP1 catalytic activity towards cycloretinal ([6]; pH 5.5, 6.4, 7.0, 7.5 tested): 5.5
- activity at lysosomal pH ([6]; pH of 5.5): highly active

Reference: US20260130973A1, “COMPOSITIONS AND METHODS FOR DEGRADATION OF LIPOFUSCIN CYCLORETINAL BY MSP1” (THE TEXAS A&M UNIVERSITY SYSTEM, priority 2022, published 2026)
